Values belong to the binder of their own block, whether it stands above or below them.
Experiments:
GST-UAP56 = target: T1, GST-UAP56 (Arabidopsis thaliana (Mouse-ear cress), UniProt Q9LFN6); test: GST pull-down; ATP present
T1 chain: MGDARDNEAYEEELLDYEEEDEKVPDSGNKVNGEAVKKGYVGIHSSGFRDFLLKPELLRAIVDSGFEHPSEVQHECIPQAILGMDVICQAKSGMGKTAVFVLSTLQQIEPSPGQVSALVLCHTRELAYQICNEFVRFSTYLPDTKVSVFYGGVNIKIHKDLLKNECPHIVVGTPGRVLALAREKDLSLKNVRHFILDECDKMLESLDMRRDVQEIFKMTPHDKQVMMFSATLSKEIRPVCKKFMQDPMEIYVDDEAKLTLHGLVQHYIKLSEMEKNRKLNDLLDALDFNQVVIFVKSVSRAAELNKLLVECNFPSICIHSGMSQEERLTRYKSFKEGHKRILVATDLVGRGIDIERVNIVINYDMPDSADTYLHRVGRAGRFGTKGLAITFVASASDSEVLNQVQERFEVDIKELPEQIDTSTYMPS

UAP56 [1] = target: T2, UAP56 (Arabidopsis thaliana, UniProt Q56XG6 1-427); test: EMSA; 0.25-5 uM protein; single complex; MST: 50 nM labelled oligonucleotide in EMSA buffer (composition cited, ref 44), 28 C, Hill fit; EMSA: 32P probe, PAGE, same cited protocol; salt and pH not given; conditions: protein: recombinant; tags: 6xHis (pQE9); label: 32P; blunt
T2 sequence: T1 chain

UAP56 [2] = target: T2, UAP56; test: MST; MST: 50 nM labelled oligonucleotide in EMSA buffer (composition cited, ref 44), 28 C, Hill fit; EMSA: 32P probe, PAGE, same cited protocol; salt and pH not given; conditions: protein: recombinant; tags: 6xHis (pQE9); label: fluorescent; blunt
[3] = target: T3, Df31 (Decondensation Factor 31) (Drosophila, UniProt O16043 1-183); test: MST; up to 411 uM protein; MST: 50 nM labelled oligonucleotide in EMSA buffer (composition cited, ref 44), 28 C, Hill fit; EMSA: 32P probe, PAGE, same cited protocol; salt and pH not given; conditions: protein: recombinant; label: fluorescent; blunt
T3 sequence: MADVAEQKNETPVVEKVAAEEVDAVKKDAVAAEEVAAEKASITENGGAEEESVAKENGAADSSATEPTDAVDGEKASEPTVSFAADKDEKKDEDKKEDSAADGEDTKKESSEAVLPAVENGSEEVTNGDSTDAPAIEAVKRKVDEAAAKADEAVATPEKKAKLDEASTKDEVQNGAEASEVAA

UAP56 [4] = target: T2, UAP56; test: EMSA; 0.25-5 uM protein; two complexes; less efficient than RNA; MST: 50 nM labelled oligonucleotide in EMSA buffer (composition cited, ref 44), 28 C, Hill fit; EMSA: 32P probe, PAGE, same cited protocol; salt and pH not given; conditions: protein: recombinant; tags: 6xHis (pQE9); label: 32P; blunt

binding result (GST-UAP56): no binding
B1: 6xHis-HMGB2 (protein)
chain: MKGAKSKTETRSSKLSVTKKPAKGAGRGKAAAKDPNKPKRPASAFFVFMEDFRETFKKENPKNKSVATVGKAAGDKWKSLSDSEKAPYVAKAEKRKVEYEKNIKAYNKKLEEGPKEDEESDKSVSEVNDEDDAEDGSEEEEDDD

binding result (GST-UAP56): binds
B2: 6xHis-MOS11 (protein)
chain: MATNGEKVTATVVNGGGLSTGENPKKIVDLNTTELDRTDDILDGEVKGFSDSGEKKEETDSNGIGSTAGVDSGDISPVDDIQKKIRRAERFGVSVKLTEEEKRNSRAERFGTVAAAVVNGSEGTKKAEELKRKARADRFGVPSATSTTDKTEEEAKKKARLARFGKETKVDSAEENKRKARALRFSKEASADASSDLPEKQIIGKEAAVSGSAA

B3: R25ds (dsRNA)
RNA 1: AAAACAAAAUAGCACCGUAAAGCAC
RNA 2: GUGCUUUACGGUGCUAUUUUGUUUU
binding result (UAP56 [1]): binds

B4: R29ds (dsRNA)
RNA 1: CCUCCUUUUUUCUUUUUUUUUUUUUUUCU
RNA 2: AGAAAAAAAAAAAAAAAGAAAAAAGGAGG
Kd (UAP56 [2]): 51.5 ± 5.3 µM

B5: D29ds (dsDNA)
DNA 1: CCTCCTTTTTTCTTTTTTTTTTTTTTTCT
DNA 2: AGAAAAAAAAAAAAAAAGAAAAAAGGAGG
Kd (UAP56 [2]): 6.5 ± 0.75 µM
binding result [3]: no binding

B6: D25ds (dsDNA)
DNA 1: AAAACAAAATAGCACCGTAAAGCAC
DNA 2: GTGCTTTACGGTGCTATTTTGTTTT
binding result (UAP56 [4]): binds

From paper PMC3608606, “Arabidopsis DEAD-Box RNA Helicase UAP56 Interacts with Both RNA and DNA as well as with mRNA Export Factors”
